According to publication PMC9452783, “PLK1-mediated phosphorylation of PPIL2 regulates HR via CtIP” (Frontiers in Cell and Developmental Biology, 2022):

T1: GST-ZNF830 (E. coli, purified) (UniProt Q96NB3 1-372)
T1 construct: ZNF830, full length, GST-tagged (pGEX6T-1); also called GST-tagged ZNF830; source: E. coli BL21, purified (glutathione-Sepharose 4B)
T1 sequence (looked up): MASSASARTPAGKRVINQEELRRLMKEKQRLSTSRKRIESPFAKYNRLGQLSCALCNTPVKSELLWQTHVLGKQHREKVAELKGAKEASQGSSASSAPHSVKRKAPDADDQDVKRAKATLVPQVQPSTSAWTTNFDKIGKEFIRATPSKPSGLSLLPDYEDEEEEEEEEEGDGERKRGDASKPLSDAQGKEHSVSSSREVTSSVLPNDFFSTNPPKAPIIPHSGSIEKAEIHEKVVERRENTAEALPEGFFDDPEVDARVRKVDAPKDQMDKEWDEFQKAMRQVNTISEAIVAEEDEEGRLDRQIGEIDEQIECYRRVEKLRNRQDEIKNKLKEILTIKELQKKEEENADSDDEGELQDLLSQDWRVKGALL

B1: His-PPIL2 241-520 (E. coli, purified) (domain or fragment, UniProt Q13356 241-520, looked up)
chain: YSTGKVSASFTSTAMVPETTHEAAAIDEDVLRYQFVKKKGYVRLHTNKGDLNLELHCDLTPKTCENFIRLCKKHYYDGTIFHRSIRNFVIQGGDPTGTGTGGESYWGKPFKDEFRPNLSHTGRGILSMANSGPNSNRSQFFITFRSCAYLDKKHTIFGRVVGGFDVLTAMENVESDPKTDRPKEEIRIDATTVFVDPYEEADAQIAQERKTQLKVAPETKVKSSQPQAGSQGPQTFRQGVGKYINPAATKRAAEEEPSTSATVPMSKKKPSRGFGDFSSW
notes: source: E. coli BL21, purified (Ni-NTA)

Experiments:
[1] = target: B1; test: pull-down; GST pull-down with purified GST-ZNF830 (full length or fragments) and His-PPIL2 (full length or fragments) expressed in E. coli; western blot and Coomassie brilliant blue; settings: both partners purified
[2] = target: T1, GST-ZNF830 (E. coli, purified); test: as above; settings: both partners purified

| binding result [1] | binding result [2] | Binder |
| --- | --- | --- |
| binds | – | GST-ZNF830 151-372 (E. coli, purified) (domain or fragment, UniProt Q96NB3 151-372, looked up, source: E. coli BL21, purified (glutathione-Sepharose 4B)) SGLSLLPDYEDEEEEEEEEEGDGERKRGDASKPLSDAQGKEHSVSSSREVTSSVLPNDFFSTNPPKAPIIPHSGSIEKAEIHEKVVERRENTAEALPEGFFDDPEVDARVRKVDAPKDQMDKEWDEFQKAMRQVNTISEAIVAEEDEEGRLDRQIGEIDEQIECYRRVEKLRNRQDEIKNKLKEILTIKELQKKEEENADSDDEGELQDLLSQDWRVKGALL |
| – | binds | B1 |
